Measured values published in paper PMC8367650.

Molecular target: IdeS FabRICATOR enzyme
Assay: SEC

Substance: IdeS FabRICATOR enzyme
- stoichiometry N: 2
